Kd data for two molecules are collected here from PMC10967385, “Essential role of obscurin kinase-1 in cardiomyocyte coupling via N-cadherin phosphorylation” (JCI Insight, 2024).

Numbering of substitutions follows the chain as printed.

The assay concerns the target T1, MBP-p120-catenin(311-747), middle portion of p120-catenin containing armadillo domains 1-8 fused to maltose … (UniProt P30999 311-747).
T1 construct: p120-catenin, middle portion containing armadillo domains 1-8, aa 311-747; source: recombinant protein (source in Supplemental Methods)
T1 sequence (looked up): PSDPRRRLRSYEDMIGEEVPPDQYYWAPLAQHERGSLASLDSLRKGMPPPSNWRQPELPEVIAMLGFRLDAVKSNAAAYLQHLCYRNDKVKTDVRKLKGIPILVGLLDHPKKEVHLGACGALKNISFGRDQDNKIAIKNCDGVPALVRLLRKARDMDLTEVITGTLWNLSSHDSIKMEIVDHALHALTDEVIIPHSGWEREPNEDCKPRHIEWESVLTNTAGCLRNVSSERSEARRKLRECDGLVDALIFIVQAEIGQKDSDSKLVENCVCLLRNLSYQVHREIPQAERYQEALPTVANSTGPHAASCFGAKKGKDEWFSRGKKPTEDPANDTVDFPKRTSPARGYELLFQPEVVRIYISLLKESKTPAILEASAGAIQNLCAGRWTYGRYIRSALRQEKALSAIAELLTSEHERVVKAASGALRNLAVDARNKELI
Kind of assay: ITC; VP-ITC, 37°C, PBS pH 7.4; GST-Ncad ligands (80-100 μM) titrated into 10 μM MBP-p120-catenin(311-747) in the sample chamber; control titrations subtracted; 1-site binding model; average of 3 replicates; number of sites fixed to 1 for the SE ligand. Conditions: both partners purified. On the technique in general: ITC needs no label: the signal is the heat of the interaction.

In general, Kd refers to the constant that tells how readily two partners part at equilibrium. High values mean lower affinity, low ones higher affinity.

B1: GST-Ncad(746-906)-WT, recombinant GST-tagged cytoplasmic domain of N-cadherin (domain or fragment, mouse, UniProt P15116 746-906, looked up)
chain: MKRRDKERQAKQLLIDPEDDVRDNILKYDEEGGGEEDQDYDLSQLQQPDTVEPDAIKPVGIRRLDERPIHAEPQYPVRSAAPHPGDIGDFINEGLKAADNDPTAPPYDSLLVFDYEGSGSTAGSLSSLNSSSSGGDQDYDYLNDWGPRFKKLADMYGGGDD
notes: source: recombinant protein (source in Supplemental Methods)
With B1, the Kd came to 1.25 µM.

B2: GST-Ncad(746-906)-SE, phosphomimic Ser-788-Glu GST-tagged cytoplasmic domain of N-cadherin (domain or fragment, mouse, UniProt P15116 746-906, looked up)
chain: B1 chain with S43E
notes: as for B1
In the case of B2, the affinity, expressed as Kd, was 197 µM.
